From US20260193348A1 (ANTENGENE BIOLOGICS, published 2026)
Numbering of substitutions follows the chain as printed. Names may count otherwise.

B1: Bis-108+147-R100Q.H (bispecific antibody, V domains shown)
VH 1: EVQLVQSGAEVKKPGASVKVSCKASGYTFTSYVIHWVRQAPGQGLEWMGYFNPYNDGTKYNEEFKGRVTLTSDKSTSTAYMELRSLRSDDTAVYYCARGGVRRYFDVWGQGTTVTVSS
VL 1: DIQMTQSPSSLSASVGDRVTITCRASQDIGSNLNWLQQKPGKAIKRLIYATFGLDSGVPSRFSGSRSGTDFTLTISSLQPEDFATYYCQQYASFPYTFGGGTKVEIK
VH 2: EVQLVQSGAEVKKPGSSVKVSCKASGYTFTSYWMHWVRQAPGQCLEWMGNINPSSGATNYNEKFKSRVTLTVDKSTSTAYMELSSLRSEDTAVYYCARDQSSQYYFDYWGQGTTVTVSS
VL 2: DIVMTQSPDSLAVSLGERATINCKSSQSLLNSRSRKNYLAWYQQKPGQPPKLLIYWASTRESGVPDRFSGSGSGTDFTLTISSLQAEDVAVYYCTQSYTLRTFGCGTKVEIK
notes: Fab-scFv-Fab (2+1): first VH/VL = anti-GPRC5D Fabs, second VH/VL = anti-CD3 scFv
B2: Bis-108+147-S32R.L (bispecific antibody, V domains shown)
VH 1: B1 VH 1
VL 1: B1 VL 1
VH 2: B1 VH 2 with Q100R
VL 2: B1 VL 2 with S32R
notes: as for B1
B3: Bis-108+147-S54R.H (bispecific antibody, V domains shown)
VH 1: B1 VH 1
VL 1: B1 VL 1
VH 2: B1 VH 2 with S54R, Q100R
VL 2: B1 VL 2
notes: as for B1
B4: Bis-108+147-S102Q.H (bispecific antibody, V domains shown)
VH 1: B1 VH 1
VL 1: B1 VL 1
VH 2: B1 VH 2 with Q100R, S102Q
VL 2: B1 VL 2
notes: as for B1
B5: Bis-108+147-S31R.H (bispecific antibody, V domains shown)
VH 1: B1 VH 1
VL 1: B1 VL 1
VH 2: B1 VH 2 with S31R, Q100R
VL 2: B1 VL 2
notes: as for B1
B6: Bis-40E9-L2H3 (bispecific antibody, human IgG1, kappa, L234A L235A)
heavy 1: not shown
heavy 2: EVQLVQSGAEVKKPGASVKVSCKASGYTFTSYVIHWVRQAPGQGLEWMGYFNPYNDGTKYNEEFKGRVTLTSDKSTSTAYMELRSLRSDDTAVYYCARGGVRRYFDVWGQGTTVTVSSASTKGPSVFPLAPSSKSTSGGTAALGCLVKDYFPEPVTVSWNSGALTSGVHTFPAVLQSSGLYSLSSVVTVPSSSLGTQTYICNVNHKPSNTKVDKKVEPKSCGGGGSGGGGSEVQLVQSGAEVKKPGSSVKVSCKASGYTFSSYVIHWVRQAPGQCLEWMGYINPYNDVIKYNEKFKGRVTLTSDKSTSTAYMELSSLRSEDTAVYYCARDSYYSYDGFAYWGQGTLVTVSSGGGGSGGGGSGGGGSGGGGSEIVLTQSPDFQSVTPKEKVTITCSASSSVSYMHWYQQKPDQSPKRLIYDTSKLASGVPSRFSGSGSGTDFTLTINSLEAEDAATYYCQQWSSNPPTFGCGTKVEIKGGGGSGGGGSDKTHTCPPCPAPEAAGGPSVFLFPPKPKDTLMISRTPEVTCVVVDVSHEDPEVKFNWYVDGVEVHNAKTKPREEQYNSTYRVVSVLTVLHQDWLNGKEYKCKVSNKALPAPIEKTISKAKGQPREPQVCTLPPSREEMTKNQVSLSCAVKGFYPSDIAVEWESNGQPENNYKTTPPVLDSDGSFFLVSKLTVDKSRWQQGNVFSCSVMHEALHNHYTQKSLSLSPGK
light: DIQMTQSPSSLSASVGDRVTITCRASQDIGSNLNWLQQKPGKAIKRLIYATFGLDSGVPSRFSGSRSGTDFTLTISSLQPEDFATYYCQQYASFPYTFGGGTKVEIKRTVAAPSVFIFPPSDEQLKSGTASVVCLLNNFYPREAKVQWKVDNALQSGNSQESVTEQDSKDSTYSLSSTLTLSKADYEKHKVYACEVTHQGLSSPVTKSFNRGEC
B7: Bis-40E9-L2H7 (bispecific antibody)
heavy 1: not shown
heavy 2: B6 heavy 2 with Y285G, D287G, Y333S
light: B6 light
notes: Fab-scFv-Fab format with LALA mutations
B8: Bis-40E9-L2H3-D105R.H (bispecific antibody)
heavy 1: not shown
heavy 2: B6 heavy 2 with D336R
light: B6 light
notes: as for B7
B9: Bis-40E9-L2H3-D56G.H (bispecific antibody)
heavy 1: not shown
heavy 2: B6 heavy 2 with D287G
light: B6 light
notes: as for B7
B10: Bis-40E9-L2H11 (bispecific antibody)
heavy 1: not shown
heavy 2: B6 heavy 2 with D336R, G337A
light: B6 light
notes: Fab-scFv-Fab format with LALA mutations; copies: 1 + 1 + 2
B11: Bis-40E9-L2H3-Y101F.H (bispecific antibody)
heavy 1: not shown
heavy 2: B6 heavy 2 with Y332F
light: B6 light
notes: as for B7
B12: Bis-40E9-L2H3-N55S.H (bispecific antibody, human IgG1, kappa, L234A L235A)
heavy 1: not shown
heavy 2: B6 heavy 2 with N286S
light: B6 light

Experiments:
[1] = biological target: T1, GPRC5D on multiple myeloma cells (human, UniProt Q9NZD1 1-345); assay: FACS on MM.1S cells
T1 construct: whole, on cells; Endogenous GPRC5D on multiple myeloma cell lines; also called G-protein coupled receptor family C group 5 member D; MM.1S, MOLP-8, L363, RPMI8226 cells

[2] = biological target: T2, CD3 on T cells / Jurkat cells (human, UniProt P07766 23-207; P04234 22-171; P09693 23-182); assay: FACS on Jurkat cells
T2 construct: whole, on cells; Native CD3 complex on CD3+ T cells isolated from normal donors or on Jurkat cells; also called human CD3; CD3+ T cells

GPRC5D on MM.1S cells [3] = biological target: T3, GPRC5D on MM.1S cells (human, UniProt Q9NZD1 1-345); assay: cell-based or functional assay
GPRC5D on MM.1S cells [4] = biological target: T3, GPRC5D on MM.1S cells; assay: cell-based or functional assay; remark: listed apart in the source
CD3 on Jurkat cells = biological target: T4, CD3 on Jurkat cells (UniProt P07766 23-207; P04234 22-171; P09693 23-182); assay: FACS on Jurkat cells
T4 construct: whole, on cells; On the cell, CD3 stands in the TCR-CD3 complex; also called cluster of differentiation 3
Description: The binding affinities of the generated humanized Fab-scFv-Fab bispecific antibodies were determined by FACS analysis. […] (a) Jurkat cells were washed by Staining Buffer (PBS+1% BSA) in round bottom 96-well plate. [0833] (b) Antibody dilutions and cells were added to each well, incubated at 4 degrees for 1 hour. [0834] (c) Cells were spined down at 300 g for 3 minutes, and the supernatants were discarded. [0835] (d) Cells were washed with Staining Buffer. […] (e) Step (d) was repeated and the cells were incubated for 0.5 hours at 4 degrees with secondary antibody in Staining Buffer. [0837] (f) After incubation, step (d)-(e) were repeated. […] (g) Staining Buffer was added and fluorescence signals were recorded by flow cytometry.
The binding affinities of the generated humanized Fab-scFv-Fab bispecific antibodies were determined by FACS analysis. The protocol for FACS analysis is identical to that described in Example 3.2, except that different test antibodies were used.

GPRC5D on MM.1S cells [5] = biological target: T3, GPRC5D on MM.1S cells; assay: FACS on MM.1S cells
Description: To evaluate the binding affinity of the generated chimeric bispecific antibody to T cells, the isolated CD3⁺ T cells were stained by antibodies and the binding affinity was determined by FACS analysis. The protocol of FACS analysis is described as follows: [0785] (a) CD3⁺ T cells were isolated from normal donors. [0786] (b) The isolated CD3⁺ T cells were washed by Staining Buffer (PBS+1% BSA) in round bottom 96-well plate. […] (c) Antibody dilutions were added to each well and mixed with the CD3+ T cells, incubated at 4 degrees for 1 hour. […] (d) Cells were spined at 300 g for 3 minutes, then the supernatants were discarded. [0789] (e) Cells were washed with Staining Buffer. [0790] (f) Step (d) was repeated, and the cells were incubated with secondary antibody in Staining Buffer for 0.5 hours at 4 degrees. [0791] (g) After incubation, step (d)-(e) were repeated. [0792] (h) Cells were resuspended in Staining Buffer and fluorescence signals were recorded by flow cytometry.
The binding affinities of the generated humanized Fab-scFv-Fab bispecific antibodies to MM.1S were evaluated by FACS analysis. The protocol for FACS analysis is identical to that described in Example 1.2, except that MM.1S were used in this example.

T2 sequence (P07766 23-207, chain 1 of 3): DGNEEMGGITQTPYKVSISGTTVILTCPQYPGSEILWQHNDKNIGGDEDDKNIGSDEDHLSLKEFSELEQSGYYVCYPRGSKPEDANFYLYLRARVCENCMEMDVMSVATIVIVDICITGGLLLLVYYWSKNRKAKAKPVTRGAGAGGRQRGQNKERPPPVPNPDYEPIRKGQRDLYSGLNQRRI
T2 sequence (P04234 22-171, chain 2 of 3): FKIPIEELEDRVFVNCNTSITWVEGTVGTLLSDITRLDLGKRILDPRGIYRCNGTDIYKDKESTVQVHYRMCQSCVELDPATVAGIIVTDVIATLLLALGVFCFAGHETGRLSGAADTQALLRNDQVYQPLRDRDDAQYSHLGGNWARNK
T2 sequence (P09693 23-182, chain 3 of 3): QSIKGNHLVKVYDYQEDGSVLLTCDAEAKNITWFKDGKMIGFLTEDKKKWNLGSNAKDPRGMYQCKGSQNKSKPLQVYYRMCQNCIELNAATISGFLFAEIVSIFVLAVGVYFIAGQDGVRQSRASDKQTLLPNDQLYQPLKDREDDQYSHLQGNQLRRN
T4 sequence (P07766 23-207, chain 1 of 3): as the sequence (P07766 23-207, chain 1 of 3) above
T4 sequence (P04234 22-171, chain 2 of 3): as the sequence (P04234 22-171, chain 2 of 3) above
T4 sequence (P09693 23-182, chain 3 of 3): as the sequence (P09693 23-182, chain 3 of 3) above
T3 sequence (Q9NZD1 whole entry): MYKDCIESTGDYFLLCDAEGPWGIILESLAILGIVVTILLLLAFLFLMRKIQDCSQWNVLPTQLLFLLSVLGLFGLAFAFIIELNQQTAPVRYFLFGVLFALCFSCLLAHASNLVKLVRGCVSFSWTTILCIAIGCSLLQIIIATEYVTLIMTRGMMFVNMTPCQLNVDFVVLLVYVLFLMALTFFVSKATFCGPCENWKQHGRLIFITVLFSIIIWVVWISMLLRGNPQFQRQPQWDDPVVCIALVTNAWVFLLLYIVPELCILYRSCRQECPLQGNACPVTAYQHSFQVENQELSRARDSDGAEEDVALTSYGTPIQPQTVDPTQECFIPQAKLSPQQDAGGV
T1 sequence (Q9NZD1 whole entry): as above

Binder | binding result [1] | binding result [2] | Ratio of IC50 (relative to ATG-Bis-40E9), MM.1S cytotoxicity (GPRC5D on MM.1S cells [3]) [ratio] | Ratio of Top cytotoxicity (relative to ATG-Bis-40E9), MM.1S cytotoxicity (GPRC5D on MM.1S cells [3]) [ratio] | Ratio of EC50 (relative to ATG-Bis-40E9), luciferase assay on MM.1S (GPRC5D on MM.1S cells [4]) [ratio] | Ratio of Top RLU (relative to ATG-Bis-40E9), luciferase assay on MM.1S (GPRC5D on MM.1S cells [4]) [ratio] | Ratio of EC50 (relative to ATG-Bis-40E9) (CD3 on Jurkat cells) [ratio] | Ratio of Top MFI (relative to ATG-Bis-40E9) (CD3 on Jurkat cells) [ratio] | Ratio of EC50 (relative to ATG-Bis-40E9) (GPRC5D on MM.1S cells [5]) [ratio] | Ratio of Top MFI (relative to ATG-Bis-40E9) (GPRC5D on MM.1S cells [5]) [ratio]
B1 | binds | binds |  |  |  |  |  |  |  | 
B2 | binds | binds |  |  |  |  |  |  |  | 
B3 | binds | binds |  |  |  |  |  |  |  | 
B4 | binds | binds |  |  |  |  |  |  |  | 
B5 | binds | binds |  |  |  |  |  |  |  | 
B6 |  |  | 0.23 | 1.04 | 3.25 | 1.09 | 1.65 | 0.77 | 1.19 | 0.997
B7 |  |  | 3.21 | 0.98 | 2.79 | 0.85 | 1.24 | 0.68 | 2.5 | 1.25
B8 |  |  | 0.86 | 1.01 | 1.32 | 0.79 | 4.53 | 1.17 |  | 
B9 |  |  | 0.99 | 1 | 0.81 | 1.01 | 2.41 | 0.55 |  | 
B10 |  |  | 13.7 | 1 | 26.2 | 1.24 | 7.88 | 6.35 | 5.78 | 1.47
B11 |  |  | 1.94 | 1.03 | 4.89 | 1.57 | 13.6 |  | 1.27 | 0.954
B12 |  |  | 1.06 | 1 | 1.33 | 0.75 | 167 |  |  | 
